From article doi:10.1101/2024.03.22.585941 (bioRxiv, 2024)

Target: the molecule itself
Test: SEC

B1: LexAPaS125A, full-length P. aeruginosa LexA carrying the S125A mutation in the catalytic dyad (natural protein)
chain: MQKLTPRQAEILSFIKRCLEDHGFPPTRAEIAQELGFKSPNAAEEHLKALARKGAIEMTPGASRGIRIPGFEPHAANDDEGLPVIGRVAAGAPILAEQNIEESCRINPAFFNPRADYLLRVRGMAMKDIGILDGDLLAVHVTREARNGQVVVARIGEEVTVKRFKREGSKVWLLAENPEFAPIEVDLKEQELIIEGLSVGVIRR
With B1 the “stoichiometry N” value was 2.
